Results from patent US20230348564A1, “ANTI-CANCER PROTEINS” (UNICHEM LABORATORIES LTD, priority 2020, published 2023).

Key:
[1] = system: MDA-MB-231 (Mammary gland/breast adenocarcinoma); assay: Xenograft study; assay type: in vivo, mice; settings: MDA-MB-231 xenograft, IP
Source text: (§1) The Xenograft models used were HT-29, KB, PA-1, MCF-7, PANC-1, T24 and MDA-MB-231. The basic study design for the Xenograft study was as follows: • 1. Cell maintenance and cell suspension preparation • 2. Aseptic injection of tumor cell suspension in the donor animal • 3. Randomization of animals in respective groups • 4. IP dosing of test items in predetermined doses • 5. IP administration of standard • 6. After completion of dosing period. • 7. The Tumor volume recording weekly twice while body weight and clinical signs daily.

KB (Cervical cancer) = assay: Xenograft study; assay type: in vivo, mice; settings: IP
Source text: as §1

MCF-7 (Breast cancer) = assay: Xenograft study; assay type: in vivo, mice; settings: MCF-7 xenograft, IP
Source text: as §1

[2] = system: PA-1 (Ovary teratocarcinoma); assay: Xenograft study; assay type: in vivo, mice; settings: PA-1 xenograft, IP
Source text: as §1

[3] = system: T24 (Urinary bladder/transitional cell carcinoma); assay: Xenograft study; assay type: in vivo, mice; settings: IP
Source text: as §1

[4] = system: HT-29 (Colorectal cancer); assay: Xenograft study; assay type: in vivo, mice
Source text: as §1

[5] = system: PANC-1 (Pancreas/duct epithelioid carcinoma); assay: Xenograft study; assay type: in vivo, mice; settings: PANC-1 xenograft, IP
Source text: as §1

PANC-1 = assay: JC-1 assay, mitochondrial membrane depolarization; assay type: cell-based, Human; settings: 16h
Method: (§2) To evaluate the in vitro apoptotic effect of recombinant lectin having the amino acid sequence of SEQ ID NO.2 in MDA-MB-231 (breast cancer) and PANG-1 (pancreatic cancer) cell line by JC-1 assay, an increase in mitochondrial membrane depolarization was used as a marker of apoptosis. […] 2 using JC-1 dye based method. […] The cell lines were grown in Dulbecco's Modified Eagle Medium (DMEM)+10% heat inactivated FBS at 37° C. (95% humidity and 5% CO2). […] Recombinant lectin having the amino acid sequence of SEQ ID NO. 2 was diluted in serum free medium. Doxorubicin was used as positive control and stock solution was prepared in dimethyl sulfoxide (DMSO). […] The cells were then incubated overnight under growth conditions to allow the cell recovery and exponential growth. Cells were treated with the recombinant lectin of SEQ ID NO. […] Following respective treatments the cells in the above plate were incubated for 16h in CO2 incubator at 37° C., 5% CO2 and 95% humidity.
(§3) After 16h of incubation, the supernatants were discarded and 100 μL of JC1-dye solution (prepared by diluting 1 mM DMSO stock in to 10 μM in 1×PBS) was added to each well. The cells were then incubated with the dye in CO2 incubator at 37° C. for 15 min. After 15 min of incubation, the supernatant was removed and the cells were washed twice with 1×PBS and then 100 μL of 1×PBS was added to each well. Red fluorescence (excitation 550 nm, emission 600 nm) and green fluorescence (excitation 485 nm, emission 535 nm) were measured using Biotek Synergy FIT plate reader. The mitochondrial membrane potential […] was calculated as the ratio of intensity of red fluorescence to intensity of green fluorescence described as follows:
(§4) ΔΨM=Intensity of red fluorescence/Intensity of green fluorescence
(§5) The percentage decrease of Red fluorescence/Green fluorescence corresponding to each treatment was calculated using the following formula:
(§6) Where X=Δψm corresponding to treated cells R=ΔΨM corresponding to control wells.

MDA-MB-231 = assay: JC-1 assay, mitochondrial membrane depolarization; assay type: cell-based, Human; settings: 16h
Method: as §2, §3, §4, §5, §6

Glioblastoma (U251MG) = assay: cytotoxicity in Brain Tumor Cell lines by MTT assay; settings: 72 h

B1: SEQ ID NO. 2: recombinant lectin; variant of the S. rolfsii lectin amino acid sequence (reported as Rec-2 in WO 2010/095143) (protein)
chain: TYKITVRVYQTNPDAFFHPVEKTVWKYANGGTWTITDDQHVLTMGGSGTSGTLRFHADNGESFTATFGVHNYKRWCDIVTNLAADETGMVINQQYYSQKNREEARERQLSNYQVKNAKGRNFQIVYTEAEGNDLHANLIIG
modifications: In vitro synthesis
Maximum Tumor Growth Inhibition (%) [1]: 35.21% | Tumor Volume (mm^3) (Mean ± SEM) [1]: 834.80 ± 126.95 mm^3 | Maximum Tumor Growth Inhibition (%) (KB (Cervical cancer)): 60.49% | Tumor Volume (mm^3) (Mean ± SEM) (KB (Cervical cancer)): 782 ± 92 mm^3 | Maximum Tumor Growth Inhibition (%) (MCF-7 (Breast cancer)): 69.04% | Tumor Volume (mm^3) (Mean ± SEM) (MCF-7 (Breast cancer)): 1256 ± 132 mm^3 | Maximum Tumor Growth Inhibition (%) [2]: 62.15% | Tumor Volume (mm^3) (Mean ± SEM) [2]: 1050 ± 132 mm^3 | Maximum Tumor Growth Inhibition (%) [3]: 36.52% | Tumor Volume (mm^3) (Mean ± SEM) [3]: 551.06 ± 10.02 mm^3 | tumor volume in comparison with the vehicle control group, in words ([4]; 20 mg/Kg and 30 mg/Kg body weight (daily)): significant decrease in tumor volume | Maximum Tumor Growth Inhibition (%) ([4]; HT-29 xenograft, IP): 56.62% | Tumor Volume (mm^3) (Mean ± SEM) ([4]; HT-29 xenograft, IP): 1702 ± 274 mm^3 | Maximum Tumor Growth Inhibition (%) [5]: 39.15% | Tumor Volume (mm^3) (Mean ± SEM) [5]: 721.17 ± 194.63 mm^3 | Average Green fluorescence (PANC-1; 2.5 μg/mL): 315.0 | Average Red fluorescence (PANC-1; 2.5 μg/mL): 595.7 | Percentage decrease in MMP (%) (PANC-1; 2.5 μg/mL): 9.5% | Red/Green ratio (PANC-1; 2.5 μg/mL): 1.89 | depolarization of mitochondrial membrane (PANC-1; 2.5 μg/mL-80 μg/mL): 9.5%-51.7% | Average Green fluorescence (PANC-1; 5 μg/mL): 293.3 | Average Red fluorescence (PANC-1; 5 μg/mL): 452.3 | Percentage decrease in MMP (%) (PANC-1; 5 μg/mL): 26.2% | Red/Green ratio (PANC-1; 5 μg/mL): 1.54 | Average Green fluorescence (PANC-1; 10 μg/mL): 271.7 | Average Red fluorescence (PANC-1; 10 μg/mL): 301.7 | Percentage decrease in MMP (%) (PANC-1; 10 μg/mL): 46.9% | Red/Green ratio (PANC-1; 10 μg/mL): 1.11 | Average Green fluorescence (PANC-1; 20 μg/mL): 234.3 | Average Red fluorescence (PANC-1; 20 μg/mL): 265.7 | Percentage decrease in MMP (%) (PANC-1; 20 μg/mL): 45.8% | Red/Green ratio (PANC-1; 20 μg/mL): 1.13 | Average Green fluorescence (PANC-1; 40 μg/mL): 263.3 | Average Red fluorescence (PANC-1; 40 μg/mL): 266.0 | Percentage decrease in MMP (%) (PANC-1; 40 μg/mL): 51.7% | Red/Green ratio (PANC-1; 40 μg/mL): 1.01 | Average Green fluorescence (PANC-1; 80 μg/mL): 257.0 | Average Red fluorescence (PANC-1; 80 μg/mL): 272.0 | Percentage decrease in MMP (%) (PANC-1; 80 μg/mL): 49.4% | Red/Green ratio (PANC-1; 80 μg/mL): 1.06 | Average Green fluorescence (MDA-MB-231; 2.5 μg/mL): 703.0 | Average Red fluorescence (MDA-MB-231; 2.5 μg/mL): 769.7 | Percentage decrease in MMP (%) (MDA-MB-231; 2.5 μg/mL): 54.1% | Red/Green ratio (MDA-MB-231; 2.5 μg/mL): 1.09 | depolarization of mitochondrial membrane (MDA-MB-231; 2.5 μg/mL-80 μg/mL): 19.8%-54.1% | Average Green fluorescence (MDA-MB-231; 5 μg/mL): 560.0 | Average Red fluorescence (MDA-MB-231; 5 μg/mL): 709.3 | Percentage decrease in MMP (%) (MDA-MB-231; 5 μg/mL): 46.9% | Red/Green ratio (MDA-MB-231; 5 μg/mL): 1.27 | Average Green fluorescence (MDA-MB-231; 10 μg/mL): 596.3 | Average Red fluorescence (MDA-MB-231; 10 μg/mL): 1098.3 | Percentage decrease in MMP (%) (MDA-MB-231; 10 μg/mL): 22.8% | Red/Green ratio (MDA-MB-231; 10 μg/mL): 1.84 | Average Green fluorescence (MDA-MB-231; 20 μg/mL): 497.3 | Average Red fluorescence (MDA-MB-231; 20 μg/mL): 929.3 | Percentage decrease in MMP (%) (MDA-MB-231; 20 μg/mL): 21.7% | Red/Green ratio (MDA-MB-231; 20 μg/mL): 1.87 | Average Green fluorescence (MDA-MB-231; 40 μg/mL): 535.7 | Average Red fluorescence (MDA-MB-231; 40 μg/mL): 1009.0 | Percentage decrease in MMP (%) (MDA-MB-231; 40 μg/mL): 21.0% | Red/Green ratio (MDA-MB-231; 40 μg/mL): 1.88 | Average Green fluorescence (MDA-MB-231; 80 μg/mL): 500.3 | Average Red fluorescence (MDA-MB-231; 80 μg/mL): 957.3 | Percentage decrease in MMP (%) (MDA-MB-231; 80 μg/mL): 19.8% | Red/Green ratio (MDA-MB-231; 80 μg/mL): 1.91 | IC50 Value (Glioblastoma (U251MG)): 11.05 µg/mL | % Cytotoxicity (PA-1): 72.0% | % Cytotoxicity (T-24): 93.1%
